Columns and labels:
GST-OsNAC15 [1] = biological target: T1, GST-OsNAC15 (Oryza sativa, UniProt K9LKF1 1-301); assay: EMSA; EMSA: 20 uL reaction, room temperature, 20 min; 6.5% polyacrylamide gel in 0.5x TBE, 1 h; buffer, salt and pH not stated (LightShift Chemiluminescent EMSA kit); conditions: protein: recombinant; tags: N-term GST (pGEX-4T1); chain copies: 2; label: biotin at 5' of F strand; biotin printed at 3' end of R strand; blunt
T1 sequence: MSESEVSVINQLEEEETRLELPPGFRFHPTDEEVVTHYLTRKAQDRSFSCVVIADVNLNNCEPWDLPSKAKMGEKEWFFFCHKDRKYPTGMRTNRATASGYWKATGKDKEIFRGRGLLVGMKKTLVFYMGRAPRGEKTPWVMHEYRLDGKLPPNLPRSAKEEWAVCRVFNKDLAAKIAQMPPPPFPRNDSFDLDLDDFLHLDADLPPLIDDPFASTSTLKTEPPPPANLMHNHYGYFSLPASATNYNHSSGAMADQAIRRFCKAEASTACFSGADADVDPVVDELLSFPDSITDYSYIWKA

GST-OsNAC15 [2] = biological target: T1, GST-OsNAC15; assay: competition; 25-fold molar excess over labeled OsZIP10 probe; complex band weaker; EMSA: 20 uL reaction, room temperature, 20 min; 6.5% polyacrylamide gel in 0.5x TBE, 1 h; buffer, salt and pH not stated (LightShift Chemiluminescent EMSA kit); conditions: protein: recombinant; tags: N-term GST (pGEX-4T1); chain copies: 2; label: none; blunt

B1: OsZIP10 probe (dsDNA)
DNA 1: TCGCGCCATGGTGTCGACACGGCCATCTCT
DNA 2: AGAGATGGCCGTGTCGACACCATGGCGCGA
binding result (GST-OsNAC15 [1]): binds

B2: OsZIP10 cold competitor (dsDNA)
DNA 1: B1 DNA 1
DNA 2: B1 DNA 2
binding result (GST-OsNAC15 [2]): binds

— article PMC9569620, “OsNAC15 Regulates Tolerance to Zinc Deficiency and Cadmium by Binding to OsZIP7 and OsZIP10 in Rice”
